Source: US20260167959A1, “APTAZYME-BASED REGULATABLE GENE EXPRESSION SYSTEMS” (REJUVENATE BIO INC, priority 2022, published 2026)

system: Renilla luciferase RNA; assay: Barcoded aptazyme variant library screen: un-cleaved Renilla luciferase RNA by barcode read counts, HEK293-T cells; assay type: cell-based; details: un-cleaved Renilla luciferase RNA, HEK293-T cells cultured with 1 mM theophylline (ON) over without theophylline (OFF); barcode read counts, triplicate
Outline: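 Barcode sequencing of cDNA versus DNA, normalized per aptazyme, gave the un-cleaved Renilla luciferase RNA fraction and fold-change with versus without theophylline (triplicates). Library: T3H48 ribozyme with one of seven theophylline aptamer variants inserted at each position, placed in the Renilla 3′ UTR of a dual-luciferase vector.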

Molecule	Fold change in RNA expression between the ON state and the OFF state
RA165 (nucleic acid, expressed or natural sequence) DNA: GCGCGTCCTGGATTCGCGGAAACGCGTAGAGAATACCAGCATCGTCTTGATGCCCTTGGAAGTCTCCATCCAGCTGACGAGTCCCAAATAGGACGAAACGCGC	1.3 fold
RA170 (nucleic acid, expressed or natural sequence) DNA: GCGCGTCCTGGATTCGCGGAAACGCGTACATCCAGCTGACGAGTCCCAAATAGGACGAAACGCAGAATACCAGCATCGTCTTGATGCCCTTGGAAGTCTGC	1.3 fold
RA148 (nucleic acid, expressed or natural sequence) DNA: GCGCGTCCTGGATTCGCGGAAACGCGTACATCCAGCTGACGAGAGAATACCAGCATCGTCTTGATGCCCTTGGAAGTCTTCCCAAATAGGACGAAACGCGC	1.4 fold
RA160 (nucleic acid, expressed or natural sequence) DNA: GCGCGTCCTGGATTCGCGGAAACGCGTACATCCAGCTGACGAGGGAATACCAGCATCGTCTTGATGCCCTTGGAAGTCCTCCCAAATAGGACGAAACGCGC	1.3 fold
RA155 (nucleic acid, expressed or natural sequence) DNA: GCGCGTCCTGGATTCGCGGAAACGCGTACATCCAGCTGACGAGTCCCAAATAGGACGAGAATACCAGCATCGTCTTGATGCCCTTGGAAGTCTCGCGAAACGCGC	1.3 fold
RA153 (nucleic acid, expressed or natural sequence) DNA: CGAGAATACCAGCATCGTCTTGATGCCCTTGGAAGTCTCGGCGCGTCCTGGATTCGCGGAAACGCGTACATCCAGCTGACGAGTCCCAAATAGGACGAAACGCGC	1.3 fold
RA150 (nucleic acid, expressed or natural sequence) DNA: GCGCGTCCTGGATTCGCGGAAACGCGTACATCCAGCTGACGAGTCCCAAATAGGACGAAAGGAATACCAGCATCGTCTTGATGCCCTTGGAAGTCCCGCGC	1.4 fold
RA159 (nucleic acid, expressed or natural sequence) DNA: GCGCGTCCTGGATTCGCGGAATACCAGCATCGTCTTGATGCCCTTGGAAGTCCGCGGAAACGCGTACATCCAGCTGACGAGTCCCAAATAGGACGAAACGCGC	1.3 fold
RA168 (nucleic acid, expressed or natural sequence) DNA: GCGCGTCCTGGATCGAGAATACCAGCATCGTCTTGATGCCCTTGGAAGTCTCGTCGCGGAAACGCGTACATCCAGCTGACGAGTCCCAAATAGGACGAAACGCGC	1.3 fold
RA156 (nucleic acid, expressed or natural sequence) DNA: GCCGGAATACCAGCATCGTCTTGATGCCCTTGGAAGTCCGGCGCGTCCTGGATTCGCGGAAACGCGTACATCCAGCTGACGAGTCCCAAATAGGACGAAACGCGC	1.3 fold
RA147 (nucleic acid, expressed or natural sequence) DNA: GCGCGTCCTGGATTCGCGGAAACGCGTACATCCAGCTGACGAGTAGAATACCAGCATCGTCTTGATGCCCTTGGAAGTCTCCCAAATAGGACGAAACGCGC	1.4 fold
RA169 (nucleic acid, expressed or natural sequence) DNA: GCGCGTCCTGGCCGGAATACCAGCATCGTCTTGATGCCCTTGGAAGTCCGGATTCGCGGAAACGCGTACATCCAGCTGACGAGTCCCAAATAGGACGAAACGCGC	1.3 fold
RA164 (nucleic acid, expressed or natural sequence) DNA: GCGCGTCCTGGATTCGCGGAAACGCGTACATCCAGCTGACGAGTCCCAAATAGGACGCGAGAATACCAGCATCGTCTTGATGCCCTTGGAAGTCTCGAAACGCGC	1.3 fold
RA154 (nucleic acid, expressed or natural sequence) DNA: GCGCGTCCTGGATTCGCGGAAACGCGAGAATACCAGCATCGTCTTGATGCCCTTGGAAGTCTCGTACATCCAGCTGACGAGTCCCAAATAGGACGAAACGCGC	1.3 fold
RA162 (nucleic acid, expressed or natural sequence) DNA: GCGCGTCCTGGATTCGCGGAAACGCGTACATCCAGCTGACGAGTCCCAAATAGGGGAATACCAGCATCGTCTTGATGCCCTTGGAAGTCCACGAAACGCGC	1.3 fold
RA171 (nucleic acid, expressed or natural sequence) DNA: GCGCGTCCTGGATTCGCGGAAACGCGTACACGAGAATACCAGCATCGTCTTGATGCCCTTGGAAGTCTCGTCCAGCTGACGAGTCCCAAATAGGACGAAACGCGC	1.3 fold
RA015 (nucleic acid, expressed or natural sequence) DNA: GCGCGTCCTGGATTCGCGGCGGAATACCAGCATCGTCTTGATGCCCTTGGAAGTCCGAAACGCGTACATCCAGCTGACGAGTCCCAAATAGGACGAAACGCGC	3.0 fold
RA151 (nucleic acid, expressed or natural sequence) DNA: GCGCGTCCTGGATTCGCGGAAACGCGTACCGGAATACCAGCATCGTCTTGATGCCCTTGGAAGTCCGGCATCCAGCTGACGAGTCCCAAATAGGACGAAACGCGC	1.4 fold
RA149 (nucleic acid, expressed or natural sequence) DNA: GCGCGGAGAATACCAGCATCGTCTTGATGCCCTTGGAAGTCTCTCCTGGATTCGCGGAAACGCGTACATCCAGCTGACGAGTCCCAAATAGGACGAAACGCGC	1.4 fold
RA166 (nucleic acid, expressed or natural sequence) DNA: GCGCGTCCTGGATTCGCGGAAACGCGTACATCCAGCTGACGAGTCCCACGAGAATACCAGCATCGTCTTGATGCCCTTGGAAGTCTCGAATAGGACGAAACGCGC	1.3 fold
RA016 (nucleic acid, expressed or natural sequence) DNA: GCGCGTCCTGGATGAGAATACCAGCATCGTCTTGATGCCCTTGGAAGTCTCTCGCGGAAACGCGTACATCCAGCTGACGAGTCCCAAATAGGACGAAACGCGC	2.8 fold
RA163 (nucleic acid, expressed or natural sequence) DNA: GCGCGTCCTGGATTCGCGGAAACGCGTACATCCAGCCGGAATACCAGCATCGTCTTGATGCCCTTGGAAGTCCGGCTGACGAGTCCCAAATAGGACGAAACGCGC	1.3 fold
RA161 (nucleic acid, expressed or natural sequence) DNA: GCGCGTCCTGGATTCGCGGAAACGCGTACATCCAGCTGACGAGTCCCAAATAGGACCCGGAATACCAGCATCGTCTTGATGCCCTTGGAAGTCCGGGAAACGCGC	1.3 fold
RA167 (nucleic acid, expressed or natural sequence) DNA: GCGCGTCCTGGATTCGCGGAAACGCGTACATCCAGGGAATACCAGCATCGTCTTGATGCCCTTGGAAGTCCCTGACGAGTCCCAAATAGGACGAAACGCGC	1.3 fold
RA152 (nucleic acid, expressed or natural sequence) DNA: GCGCGTGGAATACCAGCATCGTCTTGATGCCCTTGGAAGTCCCCTGGATTCGCGGAAACGCGTACATCCAGCTGACGAGTCCCAAATAGGACGAAACGCGC	1.4 fold
RA157 (nucleic acid, expressed or natural sequence) DNA: GCGCGTCCTGGATTCGCGGAAACGCGTAAGAATACCAGCATCGTCTTGATGCCCTTGGAAGTCTCATCCAGCTGACGAGTCCCAAATAGGACGAAACGCGC	1.3 fold
RA158 (nucleic acid, expressed or natural sequence) DNA: GCGCGTCCTGGATTCGCGGAAACGCGTACATCCAGCTGACGAGTCCCAAATAGGACGAGTGATACCAGCATCGTCTTGATGCCCTTGGCAGCACTAAACGCGC	1.3 fold
RA014 (nucleic acid, expressed or natural sequence) DNA: GCGCGTCCTGGATTCGCGGAAACGCGTACATCCAGCTGACGAGTCCCAAATAGGACGAAACGGAATACCAGCATCGTCTTGATGCCCTTGGAAGTCCGCGC	3.1 fold
